Data published in US20180245061A1, “Modified Heterocyclase” (THE UNIVERSITY COURT OF THE UNIVERSITY OF ABERDEEN, priority 2014, published 2018).

T1: PatE' (precursor peptide PatE variant, 64 amino acids, full leader, single core peptide ITACITFC, C-terminal …)
T1 peptide: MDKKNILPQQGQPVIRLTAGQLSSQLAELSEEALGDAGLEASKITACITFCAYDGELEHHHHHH

T2: PatE' E31R
T2 construct: Point mutant of PatE'
T2 peptide: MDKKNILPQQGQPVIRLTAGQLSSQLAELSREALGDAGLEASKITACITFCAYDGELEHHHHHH


Tests used:
[1] = target: Lyngbya sp. LynD heterocyclase (SEQ ID NO: 1) variant R636A; test: ITC nucleotide binding (AMP) to LynD R636A; design: species or system Lyngbya sp. PCC 8106; settings: 25° C., pH 7.4, 5 mM MgCl2
Procedure: (§1) Codon optimized full-length LynD (Lyngbya sp. PCC 8106) with an N-terminal TEV protease-cleavable His6-tag was purchased from DNA2.0 in the pJexpress411 plasmid. The protein was expressed in Escherichia coli BL21 (DE3) grown on auto-induction medium {Studier, 2005, Protein expression and purification, 41, 207-234} for 48 h at 20° C. Cells were harvested by centrifugation at 4,000×g, 4° C. for 15 min and re-suspended in lysis buffer (500 mM NaCl, 20 mM Tris pH 8.0, 20 mM imidazole and 3 mM β-mercaptoethanol (BME)) with the addition of complete EDTA-free protease inhibitor tablets (Roche) and 0.4 mg DNase g^−1 wet cells (Sigma). Cells were lysed by passage through a cell disruptor at 30 kPSI (Constant Systems Ltd) and the lysate was cleared by centrifugation at 40,000×g, 4° C. for 20 min. The cleared lysate was applied to a Nickel Sepharose 6 Fast Flow (GE Healthcare) column pre-washed with lysis buffer and protein eluted with 250 mM imidazole. The protein was then passed over a desalting column (Desalt 16/10, GE Healthcare) in 100 mM NaCl, 20 mM Tris pH 8.0, 20 mM imidazole, 3 mM BME. Tobacco etch virus (TEV) protease was added to the protein at a mass-to-mass ratio of 1:10 and the protein digested for 2 h at 20° C. to remove the Hiss-tag. However, removal of the Hiss-tag was not essential for activity and so less vigorous methods for purification may also be used. […]

[2] = target: Lyngbya sp. LynD heterocyclase (SEQ ID NO: 1) variant K409E; test: ITC nucleotide binding (ATP/AMP) to LynD K409E; design: species or system Lyngbya sp. PCC 8106; settings: 25° C., pH 7.4, 5 mM MgCl2
Procedure: as §1

[3] = target: Lyngbya sp. LynD heterocyclase, wild type, SEQ ID NO: 1; test: ITC nucleotide binding (ATP/AMP) to LynD; design: species or system Lyngbya sp. PCC 8106; settings: 25° C., pH 7.4, 5 mM MgCl2, one-site model, stoichiometry set to 1, read-out: Nucleotide KD (AMP)
Procedure: as §1

[4] = target: Lyngbya sp. LynD heterocyclase (SEQ ID NO: 1) variant R636E; test: ITC nucleotide binding (ATP/AMP) to LynD R636E; design: species or system Lyngbya sp. PCC 8106; settings: 25° C., pH 7.4, 5 mM MgCl2
Procedure: as §1

[5] = target: Lyngbya sp. LynD heterocyclase (SEQ ID NO: 1) variant E423R; test: ITC nucleotide binding (ATP/AMP) to LynD E423R; design: species or system Lyngbya sp. PCC 8106; settings: 25° C., pH 7.4, 5 mM MgCl2
Procedure: as §1

[6] = target: Lyngbya sp. LynD heterocyclase (SEQ ID NO: 1) variant R427E; test: ITC nucleotide binding (ATP/AMP) to LynD R427E; design: species or system Lyngbya sp. PCC 8106; settings: 25° C., pH 7.4, 5 mM MgCl2
Procedure: as §1

[7] = target: Lyngbya sp. LynD heterocyclase (SEQ ID NO: 1) variant K409A; test: ITC nucleotide binding (ATP/AMP) to LynD K409A; design: species or system Lyngbya sp. PCC 8106; settings: 25° C., pH 7.4, 5 mM MgCl2
Procedure: as §1

[8] = target: PatE′; test: ITC substrate peptide binding: PatE′; settings: 10 μM enzyme, 150 μM peptide, 20° C.
Procedure: (§2) ITC experiments were performed using a VP-ITC instrument (MicroCal) in heterocyclization reaction buffer (150 mM NaCl, 10 mM HEPES pH7.4, 1 mM TCEP) supplemented with 5 mM MgCl2. For substrate binding experiments a cell solution of 10 μM LynD (and mutants) and a syringe solution of 150 μM PatE′ (and mutants) was prepared by diluting protein and peptide with the buffer used for dialysis. For nucleotide binding experiments, the cell concentration was increased to 20 μM, and the ATP/AMP concentration in the syringe solution was 300 μM. Substrate, and ATP experiments were performed at 20° C., and AMP experiments at 25° C. Cell and syringe solutions were degassed for 15 min at 18 and 23° C. Titration method was as follows: one injection of 2 μl followed by injections of 5 μl at 0.5 μl/min, with a delay of 4 min between every injection. The stirring speed was 307 rpm throughout. Raw data was processed using MicroCal Origin software, and the baseline was adjusted and the integrations limits were selected manually. Data was non-linearly fitted to the one-site model (Origin) setting the stoichiometry to 1.

[9] = target: T1, PatE' (precursor peptide PatE variant, …); test: ITC, 20 C
[10] = target: T2, PatE' E31R; test: ITC, 20 C
[11] = target: PatE′ E31R; test: ITC substrate peptide binding: PatE′ E31R; settings: 10 μM enzyme, 150 μM peptide, 20° C.
Procedure: as §2

[12] = tested on: PatE′; test: Heterocyclization reaction with PatE′, MS analysis; type: biochemical; settings: 5 mM ATP, 5 mM MgCl2, 16 h at 37° C.; for No. of heterocycles, peptide PatE′: 2 μM enzyme, TABLE 2
Procedure: (§3) For all heterocyclization reactions, […] PatE′ (and variants,) was incubated with 2 μM enzyme in 150 mM NaCl, 10 mM HEPES pH 7.4, 1 mM TCEP, 5 mM ATP and 5 mM MgCl2 for 16 h at 37° C. Samples were analyzed by ESI or MALDI MS (LCT, Micromass or 4800 MALDI TOF/TOF Analyzer, ABSciex). For cis trans activation studies, 100 μM ITACITFCAYDG synthetic test peptide (Peptide Protein Research Ltd) was reacted with 5 μM heterocyclase enzyme in the presence and absence of 5.5 μM LAELSEEAL synthetic peptide, or 5.5 μM full-length PatE′4 leader peptide. The reaction was carried out in 150 mM NaCl, 10 mM HEPES pH 7.4, 1 mM TCEP, 5 mM ATP and 5 mM MgCl2 for 16 h at 37° C. and analyzed as above. Synthetic peptides were purchased from Peptide Protein Research Ltd.

[13] = target: PatE′ L26R; test: ITC substrate peptide binding: PatE′ L26R; settings: 10 μM enzyme, 150 μM peptide, 20° C.
PatE′ L26R, sequence (as listed by the source, stated change not applied): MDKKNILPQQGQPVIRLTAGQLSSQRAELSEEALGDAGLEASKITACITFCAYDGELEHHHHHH
Procedure: as §2

[14] = tested on: PatE′ L26R; test: Heterocyclization reaction with PatE′ L26R; type: biochemical; settings: 2 μM enzyme, 5 mM ATP, 5 mM MgCl2, 16 h at 37° C.
Procedure: as §3

[15] = tested on: PatE′ E32R; test: Heterocyclization reaction with PatE′ E32R; type: biochemical; settings: 2 μM enzyme, 5 mM ATP, 5 mM MgCl2, 16 h at 37° C.
PatE′ E32R, sequence (as listed by the source, stated change not applied): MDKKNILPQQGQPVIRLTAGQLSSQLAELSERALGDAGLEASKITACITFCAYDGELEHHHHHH
Procedure: as §3

[16] = target: PatE′ L29R; test: ITC substrate peptide binding: PatE′ L29R; settings: 10 μM enzyme, 150 μM peptide, 20° C.
PatE′ L29R, sequence (as listed by the source, stated change not applied, one chain of several): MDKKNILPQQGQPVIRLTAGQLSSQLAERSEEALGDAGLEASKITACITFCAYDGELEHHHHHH
Procedure: as §2

Molecule | Nucleotide KD (AMP) [1] | Nucleotide KD (AMP) [2] | Kd [3] [µM] | Nucleotide KD (AMP) [4] | Kd [5] [µM] | Kd [6] [µM] | Nucleotide KD (AMP) [7] | KD (μM), peptide PatE′ [8] | binding result [9] | binding result [10] | KD (μM), peptide PatE′ E31R [11] | No. of heterocycles, peptide PatE′ [12] | KD (μM), peptide PatE′ L26R [13] | No. of heterocycles, peptide PatE′ L26R [14] | No. of heterocycles, peptide PatE′ E32R [15] | KD (μM), peptide PatE′ L29R [16] | No. of heterocycles (PatE′) ([12]; PatE′ with 2 μM enzyme, TABLE 1)
Nc1ncnc2c1ncn2[C@@H]1O[C@H](COP(=O)(O)O)[C@@H](O)[C@H]1O [AMP] | no binding | no binding | 14.4 | no binding | 5.65 | 23 | no binding |  |  |  |  |  |  |  |  |  | 
LynD R74E (enzyme, Point mutant of LynD) MQSTPLLQIQPHFHVEVIEPKQVYLLGEQANHALTGQLYCQILPLLNGQYTLEQIVEKLDGEVPPEYIDYVLEELAEKGYLTEAAPELSSEVAAFWSELGIAPPVAAEALRQPVTLTPVGNISEVTVAALTTALRDIGISVQTPTEAGSPTALNVVLTDDYLQPELAKINKQALESQQTWLLVKPVGSVLWLGPVFVPGKTGCWDCLAHRLRGNREVEASVLRQKQAQQQRNGQSGSVIGCLPTARATLPSTLQTGLQFAATEIAKWIVKYHVNATAPGTVFFPTLDGKIITLNHSILDLKSHILIKRSQCPTCGDPKILQHRGFEPLKLESRPKQFTSDGGHRGTTPEQTVQKYQHLISPVTGVVTELVRITDPANPLVHTYRAGHSFGSATSLRGLRNTLKHKSSGKGKTDSQSKASGLCEAVERYSGIFQGDEPRKRATLAELGDLAIHPEQCLCFSDGQYANRETLNEQATVAHDWIPQRFDASQAIEWTPVWSLTEQTHKYLPTALCYYHYPLPPEHRFARGDSNGNAAGNTLEEAILQGFMELVERDGVALWWYNRLRRPAVDLGSFNEPYFVQLQQFYRENDRDLWVLDLTADLGIPAFAGVSNRKTGSSERLILGFGAHLDPTIAILRAVTEVNQIGLELDKVPDENLKSDATDWLITEKLADHPYLLPDTTQPLKTAQDYPKRWSDDIYTDVMTCVNIAQQAGLETLVIDQTRPDIGLNVVKVTVPGMRHFWSRFGEGRLYDVPVKLGWLDEPLTEAQMNPTPMPF |  |  |  |  |  |  |  | no binding | no binding | no binding | no binding | 2 |  |  |  |  | 
LynD: full-length cyanobactin heterocyclase LynD (Lyngbya sp. PCC 8106), SEQ ID NO: 1 (protein, Lyngbya sp. PCC 8106) MQSTPLLQIQPHFHVEVIEPKQVYLLGEQANHALTGQLYCQILPLLNGQYTLEQIVEKLDGEVPPEYIDYVLERLAEKGYLTEAAPELSSEVAAFWSELGIAPPVAAEALRQPVTLTPVGNISEVTVAALTTALRDIGISVQTPTEAGSPTALNVVLTDDYLQPELAKINKQALESQQTWLLVKPVGSVLWLGPVFVPGKTGCWDCLAHRLRGNREVEASVLRQKQAQQQRNGQSGSVIGCLPTARATLPSTLQTGLQFAATEIAKWIVKYHVNATAPGTVFFPTLDGKIITLNHSILDLKSHILIKRSQCPTCGDPKILQHRGFEPLKLESRPKQFTSDGGHRGTTPEQTVQKYQHLISPVTGVVTELVRITDPANPLVHTYRAGHSFGSATSLRGLRNTLKHKSSGKGKTDSQSKASGLCEAVERYSGIFQGDEPRKRATLAELGDLAIHPEQCLCFSDGQYANRETLNEQATVAHDWIPQRFDASQAIEWTPVWSLTEQTHKYLPTALCYYHYPLPPEHRFARGDSNGNAAGNTLEEAILQGFMELVERDGVALWWYNRLRRPAVDLGSFNEPYFVQLQQFYRENDRDLWVLDLTADLGIPAFAGVSNRKTGSSERLILGFGAHLDPTIAILRAVTEVNQIGLELDKVPDENLKSDATDWLITEKLADHPYLLPDTTQPLKTAQDYPKRWSDDIYTDVMTCVNIAQQAGLETLVIDQTRPDIGLNVVKVTVPGMRHFWSRFGEGRLYDVPVKLGWLDEPLTEAQMNPTPMPF |  |  |  |  |  |  |  |  |  |  | no binding | 2 | no binding | 2 | 2 | no binding | 2
